Reference: patent US20250296984A1 (THELPER, published 2025)
Read-outs that look alike come from different tables or passages of the source.

Assays:
[1] = biological target: T1, US28 of HCMV strain TB40/E fused to a C-terminal 6His tag (human cytomegalovirus (HCMV) strain …, UniProt P69332 1-354); test: flow cytometry, CHO cells (FIG. 21C)
T1 construct: also called TB40/E form of US28
T1 chain: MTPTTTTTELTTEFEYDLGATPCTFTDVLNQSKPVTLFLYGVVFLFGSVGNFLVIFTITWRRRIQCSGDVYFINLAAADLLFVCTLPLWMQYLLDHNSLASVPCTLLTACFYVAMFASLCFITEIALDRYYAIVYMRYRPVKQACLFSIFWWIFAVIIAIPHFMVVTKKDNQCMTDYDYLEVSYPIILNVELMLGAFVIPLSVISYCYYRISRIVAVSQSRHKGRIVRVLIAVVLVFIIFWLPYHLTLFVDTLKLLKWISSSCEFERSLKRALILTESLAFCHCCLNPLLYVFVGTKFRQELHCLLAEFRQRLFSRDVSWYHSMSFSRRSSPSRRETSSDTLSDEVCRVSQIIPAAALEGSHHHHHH

[2] = biological target: T1, US28 of HCMV strain TB40/E fused to a …; test: flow cytometry, CHO cells (FIG. 21D)
[3] = biological target: T2, mutated US28 (artificial form with all known US28 mutations) fused to a C-terminal 6His tag (artificial variant of human …, UniProt P69332 1-354); test: flow cytometry, CHO cells expressing the mutated US28
T2 construct: also called mutated strain; CHO-mutated strain
T2 chain: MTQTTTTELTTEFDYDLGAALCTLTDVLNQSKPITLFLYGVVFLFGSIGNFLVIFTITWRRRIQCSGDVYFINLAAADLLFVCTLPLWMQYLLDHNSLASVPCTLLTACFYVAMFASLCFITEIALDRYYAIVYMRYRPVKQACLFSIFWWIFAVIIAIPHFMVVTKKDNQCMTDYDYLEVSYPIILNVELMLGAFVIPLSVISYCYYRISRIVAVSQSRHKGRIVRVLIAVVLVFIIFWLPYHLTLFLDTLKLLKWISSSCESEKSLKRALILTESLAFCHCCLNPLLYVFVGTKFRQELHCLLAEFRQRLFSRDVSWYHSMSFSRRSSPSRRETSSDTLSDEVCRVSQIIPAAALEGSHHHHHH

[4] = biological target: T3, US28 of HCMV strain DB fused to a C-terminal 6His tag (human cytomegalovirus (HCMV) strain DB, UniProt P69332 1-354); test: flow cytometry, CHO cells expressing US28 of strain DB
T3 chain: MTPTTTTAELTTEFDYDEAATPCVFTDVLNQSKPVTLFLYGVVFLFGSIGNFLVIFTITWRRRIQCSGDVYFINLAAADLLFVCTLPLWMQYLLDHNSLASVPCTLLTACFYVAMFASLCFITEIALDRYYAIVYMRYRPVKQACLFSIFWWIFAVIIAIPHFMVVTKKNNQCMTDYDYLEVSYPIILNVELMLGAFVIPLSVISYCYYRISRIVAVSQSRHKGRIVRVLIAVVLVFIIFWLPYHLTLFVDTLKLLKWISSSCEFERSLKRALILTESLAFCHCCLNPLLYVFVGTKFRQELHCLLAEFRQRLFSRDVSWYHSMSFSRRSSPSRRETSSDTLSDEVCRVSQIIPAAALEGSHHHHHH

[5] = biological target: T1, US28 of HCMV strain TB40/E fused to a …; test: flow cytometry, CHO cells expressing US28 of strain TB40/E
[6] = biological target: T2, mutated US28 (artificial form with all …); test: flow cytometry, CHO-mutated strain against control CHO cells (FIG. 21B)
[7] = biological target: T3, US28 of HCMV strain DB fused to a …; test: flow cytometry, processed data of FIG. 33
[8] = biological target: T1, US28 of HCMV strain TB40/E fused to a …; test: flow cytometry, processed data of FIG. 33
[9] = biological target: T4, US28 of HCMV strain Merlin fused to a C-terminal 6His tag (human cytomegalovirus (HCMV) strain …, UniProt F5HF62 1-354); test: flow cytometry, processed data of FIG. 33
T4 construct: also called Merlin-encoded US28
T4 sequence: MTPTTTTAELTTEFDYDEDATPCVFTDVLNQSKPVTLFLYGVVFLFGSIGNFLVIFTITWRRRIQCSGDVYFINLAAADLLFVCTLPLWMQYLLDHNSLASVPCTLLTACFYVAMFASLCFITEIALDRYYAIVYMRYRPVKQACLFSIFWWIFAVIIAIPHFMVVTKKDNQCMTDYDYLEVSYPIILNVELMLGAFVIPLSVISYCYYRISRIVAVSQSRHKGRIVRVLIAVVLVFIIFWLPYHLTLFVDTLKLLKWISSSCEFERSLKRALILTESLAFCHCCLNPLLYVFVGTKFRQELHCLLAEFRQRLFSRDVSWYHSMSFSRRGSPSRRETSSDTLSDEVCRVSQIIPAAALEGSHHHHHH

[10] = biological target: T5, US28 of HCMV strain VHL/E fused to a C-terminal 6His tag (human cytomegalovirus (HCMV) strain …, UniProt P69332 1-354); test: flow cytometry, processed data of FIG. 33; reference
T5 construct: also called VHL/E-encoded US28
T5 chain: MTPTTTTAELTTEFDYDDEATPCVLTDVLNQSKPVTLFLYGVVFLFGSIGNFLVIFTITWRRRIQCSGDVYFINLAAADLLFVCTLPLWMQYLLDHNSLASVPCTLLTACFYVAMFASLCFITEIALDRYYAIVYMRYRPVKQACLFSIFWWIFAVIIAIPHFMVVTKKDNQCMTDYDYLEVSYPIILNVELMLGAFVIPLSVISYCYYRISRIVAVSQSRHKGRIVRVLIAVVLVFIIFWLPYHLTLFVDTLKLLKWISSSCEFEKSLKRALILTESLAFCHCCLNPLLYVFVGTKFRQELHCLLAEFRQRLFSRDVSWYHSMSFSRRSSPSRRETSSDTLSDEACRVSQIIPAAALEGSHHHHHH

[11] = biological target: T3, US28 of HCMV strain DB fused to a …; test: flow cytometry, transfected HEK Phoenix cells, 6.76 nM
[12] = biological target: T1, US28 of HCMV strain TB40/E fused to a …; test: as above
[13] = biological target: T5, US28 of HCMV strain VHL/E fused to a …; test: as above
[14] = biological target: T4, US28 of HCMV strain Merlin fused to a …; test: as above
[15] = biological target: T3, US28 of HCMV strain DB fused to a …; test: flow cytometry, CHO-US28 against control CHO cells
[16] = biological target: T3, US28 of HCMV strain DB fused to a …; test: flow cytometry, CHO-US28 against control CHO cells
[17] = biological target: T6, US28 of HCMV strain Ad169 (human cytomegalovirus (HCMV) strain …, UniProt P69332 1-354); test: flow cytometry, HCMV Ad169 infected against Mock MRC-5 cells
T6 sequence: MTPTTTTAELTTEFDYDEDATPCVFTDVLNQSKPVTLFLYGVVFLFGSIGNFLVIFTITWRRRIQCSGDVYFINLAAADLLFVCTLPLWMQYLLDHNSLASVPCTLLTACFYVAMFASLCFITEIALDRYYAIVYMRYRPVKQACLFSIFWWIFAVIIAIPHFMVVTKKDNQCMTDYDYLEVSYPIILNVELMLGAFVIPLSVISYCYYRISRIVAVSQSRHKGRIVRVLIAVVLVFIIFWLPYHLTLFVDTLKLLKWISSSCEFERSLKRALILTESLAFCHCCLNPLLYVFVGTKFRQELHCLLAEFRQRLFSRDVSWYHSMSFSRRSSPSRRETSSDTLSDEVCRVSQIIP

B1: monovalent VUN100 (VHH)
VHH: EVQLVESGGGLVQPGGSLRLACAVSGPGLIFKFTGVAWYRRQVPGAKRGLVALITGDGATRYGDSVKGRFTVSRDIAAKRVYLEMNDLRSEDTAVYYCKTGEYWGQGTQVTVSS
notes: also called Mv VUN100; VUN100 Ab
% change in absolute binding between the DB and TB40/E forms [1]: > 35%
% retention of binding activity between the DB and TB40/E forms [2]: ≤ 60%
% of cells bound [3]: 1.41%
binding result [3]: no binding
% of cells bound [4]: 6.91%
% of cells bound [5]: 4.33%
specificity (US28 cells over control cells) [6]: < 1 fold

B2: bivalent VUN100 (VHH)
chain: EVQLVESGGGLVQPGGSLRLACAVSGPGLIFKFTGVAWYRRQVPGAKRGLVALITGDGATRYGDSVKGRFTVSRDIAAKRVYLEMNDLRSEDTAVYYCKTGEYWGQGTQVTVSSGGGGSGGGGSGGGGSGGGGSGGGGSGGGGSEVQLVESGGGLVQPGGSLRLACAVSGPGLIFKFTGVAWYRRQVPGAKRGLVALITGDGATRYGDSVKGRFTVSRDIAAKRVYLEMNDLRSEDTAVYYCKTGEYWGQGTQVTVSSEQKLISEEDLHHHHHH
notes: also called VUN100b; BvVUN100
% change in absolute binding between the DB and TB40/E forms [1]: > 40%
% retention of binding activity between the DB and TB40/E forms [2]: ≤ 60%
variation in binding relative to US28 as encoded by VHL/E [7]: -2.92
variation in binding relative to US28 as encoded by VHL/E [8]: -14.8
variation in binding relative to US28 as encoded by VHL/E [9]: -2.41
% of cells bound [3]: 2.58%
% of cells bound [4]: 9.24%
variation in binding relative to US28 as encoded by VHL/E [10]: 0
% of cells bound [5]: 5.2%
binding value (Preliminary Binding Data) [11]: 0.62
binding value (Preliminary Binding Data) [12]: 0.16
binding value (Preliminary Binding Data) [13]: 2.29
binding value (Preliminary Binding Data) [14]: 0.71
specificity (US28 cells over control cells) [6]: 2.43 fold

B3: US28-13-5G6-1D3 (antibody, V domains shown)
VH: EVKLVESGGGLVQPGGSLRLACATSGFTFTDYYMSWVRQPPGKALEWLGFIRSKANGYTTEYSASVKGRFTISRDNSQSILYLQMNTLRSEDSATYYCARDERRTAWLAYWGQGTLVTVSA
VL: DVLMTQTPLSLPVSLGDQASISCRSSQSIVHSNGNTYLDWYLQKPGQSPKLLIYKVSNRFSGVPDRFSGSGSGTDFTLKISRVEAEDLGVYYCFQGSHVPTWTFGGGTKLEIKR
notes: also called US28-13-5G6-1D3 rAb; 13-5G6-1D3 clone
% change in absolute binding between the DB and TB40/E forms [1]: < 10%
% retention of binding activity between the DB and TB40/E forms [2]: ~100%
% of cells bound [3]: 12.9%
% of cells bound [4]: 16.6%
binding specificity comparative to the specificity displayed by VUN100 [15]: 1.65 fold
binding specificity comparative to the specificity displayed by VUN100 [16]: 1.65 fold
% of cells bound [5]: 18.2%
fold binding, infected over uninfected cells [17]: ~16 fold
specificity (US28 cells over control cells) [6]: ~15 fold
